The chains are these.
B1: NR2F2 (parent)
chain: VAHVESLQEKSQCALEEYVRSQYP

Data on 94 variants can be found in the supplement of paper PMC10567573.
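Also: lentivirally expressed fusions sorted by FACS into six bins by GFP to DsRed ratio, PSI derived from sequencing read proportions per bin multiplied by bin number.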

In this data set the parent is B1. As to the kind of experiment: protein stability index of a GFP-peptide fusion (GPS, HEK-293T) (PSI 1-6); higher = more stable. The following applies: c terminus: a fixed tail appended.
On to VAHVESLQEKVQCALEEYVRSQYP [S11V], for which the protein stability index stood at 2.48.
To VAHVESLQEKEQCALEEYVRSQYP [S11E] belongs 4.36.
On to VAHVESLQEKSGCALEEYVRSQYP [Q12G], for which the protein stability index amounted to 3.7.
The value for VAHVESLQEKSNCALEEYVRSQYP [Q12N] was 3.54.
Turning to VAHVESLQEKSPCALEEYVRSQYP [Q12P], the protein stability index is 3.12.
The value for VAHVESLQEKSVCALEEYVRSQYP [Q12V] was 2.83; that for VAHVESLQEKSKCALEEYVRSQYP [Q12K] was 3.76; that for VAHVESLQEKSMCALEEYVRSQYP [Q12M] was 2.99.
To VAHVESLQEKSYCALEEYVRSQYP [Q12Y] belongs 2.55.
To VAHVESLQEKSTCALEEYVRSQYP [Q12T] belongs 2.88; to VAHVESLQEKSWCALEEYVRSQYP [Q12W], 2.64.
In the case of VAHVESLQEKSFCALEEYVRSQYP [Q12F], the protein stability index is 2.86.
To VAHVESLQEKSSCALEEYVRSQYP [Q12S] belongs 2.77; to VAHVESLQEQSQCALEEYVRSQYP [K10Q], 3.83; to VAHVESLQEASQCALEEYVRSQYP [K10A], 3.45.
The value for VAHVESLQEYSQCALEEYVRSQYP [K10Y] was 2.63; that for VAHVESLQETSQCALEEYVRSQYP [K10T] was 3.92.
With VAHVESLQEESQCALEEYVRSQYP [K10E], the protein stability index was 4.48.
Regarding VAHVESLQEISQCALEEYVRSQYP [K10I], the protein stability index was 2.58.
To VAHVESLQERSQCALEEYVRSQYP [K10R] belongs 4.09.
On to VAHVESLQEHSQCALEEYVRSQYP [K10H], for which the protein stability index came out at 3.7.
To VAHVESLQEKSQCALENYVRSQYP [E17N] belongs 3.08; to VAHVESLQEKSQCALEYYVRSQYP [E17Y], 2.11; to VAHVESLQEKSQCALEFYVRSQYP [E17F], 2.34.
To VAHVESLQEKSQCALEAYVRSQYP [E17A] belongs 2.12.
Turning to VAHVESLQEKSQCALEHYVRSQYP [E17H], the protein stability index was found to be 2.76.
To VAHVESLQEKSQCALESYVRSQYP [E17S] belongs 3.36.
The value for VAHVESLQEKSQCALETYVRSQYP [E17T] was 3.62; that for VAHVESLQEKSQCALEQYVRSQYP [E17Q] was 3.27; that for VAHVESLQEKSQCALELYVRSQYP [E17L] was 2.49.
The value for VAHVESLQEKSQCALEMYVRSQYP [E17M] was 2.58.
On to VAHVESLQEKSQCALEERVRSQYP [Y18R], for which the protein stability index is 4.26.
The value for VAHVESLQEKSQCALEEHVRSQYP [Y18H] was 4.2; that for VAHVESLQEKSQCALEEMVRSQYP [Y18M] was 3.93.
With VAHVESLQEKSQCALEETVRSQYP [Y18T], the protein stability index came out at 4.42.
Regarding VAHVESLQEKSQCALEEYVRSQYV [P24V], the protein stability index is 3.06.
The value for VAHVESLQEKSQCALEEYVRSQYF [P24F] was 2.62; that for VAHVESLQEKSQCALEEYVRSQYL [P24L] was 3.15.
On to VAHVESLQEKSQCALEEYVRSQYT [P24T], for which the protein stability index turned out to be 3.5.
On to VAHVESLQEKSQCALEEYVRSQYG [P24G], for which the protein stability index was 3.72.
On to VAHVESLQEKSQCALEEYVRSQYS [P24S], for which the protein stability index was determined as 3.47.
To VAHVESLQEKSQCALEEYVRSQYE [P24E] belongs 3.94; to VAHVESLQEKSQCALEEYVRSQYA [P24A], 3.73; to VAHVESLQEKSQCALEEYVRSQYI [P24I], 3.19.
The value for VAHVESLQEKSQCALEEYVRSQYM [P24M] was 3.22; that for VQHVESLQEKSQCALEEYVRSQYP [A2Q] was 3.33.
In the case of VCHVESLQEKSQCALEEYVRSQYP [A2C], the protein stability index was found to be 2.54.
To VRHVESLQEKSQCALEEYVRSQYP [A2R] belongs 3.55; to VPHVESLQEKSQCALEEYVRSQYP [A2P], 3.76; to VIHVESLQEKSQCALEEYVRSQYP [A2I], 2.56.
To VYHVESLQEKSQCALEEYVRSQYP [A2Y] belongs 3.25; to VGHVESLQEKSQCALEEYVRSQYP [A2G], 3.53; to VHHVESLQEKSQCALEEYVRSQYP [A2H], 2.98.
For VNHVESLQEKSQCALEEYVRSQYP [A2N], the protein stability index was determined as 3.1.
As for VDHVESLQEKSQCALEEYVRSQYP [A2D], the protein stability index was found to be 3.85.
The value for VEHVESLQEKSQCALEEYVRSQYP [A2E] was 4.27.
The value for VVHVESLQEKSQCALEEYVRSQYP [A2V] was 3.27; that for VAHVEMLQEKSQCALEEYVRSQYP [S6M] was 3.07.
Turning to VAHVEWLQEKSQCALEEYVRSQYP [S6W], the protein stability index was found to be 2.77.
Regarding VAHVERLQEKSQCALEEYVRSQYP [S6R], the protein stability index stood at 3.67.
The value for VAHVEVLQEKSQCALEEYVRSQYP [S6V] was 3.33; that for VAHVEPLQEKSQCALEEYVRSQYP [S6P] was 2.94; that for VAHVEYLQEKSQCALEEYVRSQYP [S6Y] was 2.98.
To VAHVEFLQEKSQCALEEYVRSQYP [S6F] belongs 2.71; to VAHVETLQEKSQCALEEYVRSQYP [S6T], 3.55; to VAHVEHLQEKSQCALEEYVRSQYP [S6H], 3.26.
As for VAHVESLHEKSQCALEEYVRSQYP [Q8H], the protein stability index came to 3.49.
To VAHVESLMEKSQCALEEYVRSQYP [Q8M] belongs 2.98.
To VAHVESLYEKSQCALEEYVRSQYP [Q8Y] belongs 2.73.
Consider VAHVESLAEKSQCALEEYVRSQYP [Q8A], for which the protein stability index came to 3.03.
The value for VAHVESLPEKSQCALEEYVRSQYP [Q8P] was 3.45; that for VAHVESLREKSQCALEEYVRSQYP [Q8R] was 3.68; that for VAHVESLEEKSQCALEEYVRSQYP [Q8E] was 3.99.
To DAHVESLQEKSQCALEEYVRSQYP [V1D] belongs 4.15.
In the case of NAHVESLQEKSQCALEEYVRSQYP [V1N], the protein stability index amounted to 4.01.
To CAHVESLQEKSQCALEEYVRSQYP [V1C] belongs 2.66.
WAHVESLQEKSQCALEEYVRSQYP [V1W]: the protein stability index is 3.12.
The value for QAHVESLQEKSQCALEEYVRSQYP [V1Q] was 3.89; that for GAHVESLQEKSQCALEEYVRSQYP [V1G] was 3.79.
To AAHVESLQEKSQCALEEYVRSQYP [V1A] belongs 3.29; to HAHVESLQEKSQCALEEYVRSQYP [V1H], 3.55.
As to VAHVISLQEKSQCALEEYVRSQYP [E5I], the protein stability index is 2.41.
Regarding VAHVVSLQEKSQCALEEYVRSQYP [E5V], the protein stability index stood at 2.48.
In the case of VAHVWSLQEKSQCALEEYVRSQYP [E5W], the protein stability index worked out at 2.14.
To VAHVASLQEKSQCALEEYVRSQYP [E5A] belongs 3.27; to VAHVQSLQEKSQCALEEYVRSQYP [E5Q], 3.52.
In the case of VAHVESLQEKSQCALCEYVRSQYP [E16C], the protein stability index was 3.63.
Regarding VAHVESLQEKSQCALVEYVRSQYP [E16V], the protein stability index was 3.36.
To VAHVESLQEKSQCALSEYVRSQYP [E16S] belongs 3.37; to VAHVESLQEKSQCALHEYVRSQYP [E16H], 3.16.
To VAHVESLQEKSQCALDEYVRSQYP [E16D] belongs 3.62; to VAHVESLQEKSQCALGEYVRSQYP [E16G], 3.21.
To VAHVESLQEKSQCALIEYVRSQYP [E16I] belongs 3.7; to VAHVESLQEKSQCALWEYVRSQYP [E16W], 2.23.
